Data on one substance can be found in PMC4965175.

This experiment addresses D-allulose 3-epimerase from Flavonifractor plautii (Flavonifractor plautii ATCC 29863). Description: SEC; gel filtration on Sephacryl S-300 HR 16/60; purified enzyme eluted with 50 mM Tris-HCl pH 7.5, 150 mM NaCl, 1 mL/min; calibrated with ferritin, catalase, aldolase and conalbumin.

“D-allulose 3-epimerase from Flavonifractor plautii (enzyme)” gave a stoichiometry N of 4.

In general, stoichiometry N refers to the number of molecules, sites or subunits per partner or assembly.
